doi:10.1101/2023.02.01.526556
Where no end group is shown, it is not given here.

What was measured:
[1] = molecular target: AkFaNaC W167Y (Aplysia kurodai)
[2] = molecular target: AkFaNaC W167F (Aplysia kurodai)

EC50 of the FMRFamide-gated Na+ current (COVC, Xenopus oocytes) [1]: > 100 µM
EC50 of the FMRFamide-gated Na+ current (COVC, Xenopus oocytes) [2]: > 100 µM
Binder: FMRF-NH2 [FMRFamide]
